Our source for the Kd values is publication PMC5030094, “Human DNA2 possesses a cryptic DNA unwinding activity that functionally integrates with BLM or WRN helicases”.

The target in the data set is T1, hDNA2 D277A (nuclease-deficient) (Homo sapiens, UniProt P51530 1-1060, D277A).
T1 sequence: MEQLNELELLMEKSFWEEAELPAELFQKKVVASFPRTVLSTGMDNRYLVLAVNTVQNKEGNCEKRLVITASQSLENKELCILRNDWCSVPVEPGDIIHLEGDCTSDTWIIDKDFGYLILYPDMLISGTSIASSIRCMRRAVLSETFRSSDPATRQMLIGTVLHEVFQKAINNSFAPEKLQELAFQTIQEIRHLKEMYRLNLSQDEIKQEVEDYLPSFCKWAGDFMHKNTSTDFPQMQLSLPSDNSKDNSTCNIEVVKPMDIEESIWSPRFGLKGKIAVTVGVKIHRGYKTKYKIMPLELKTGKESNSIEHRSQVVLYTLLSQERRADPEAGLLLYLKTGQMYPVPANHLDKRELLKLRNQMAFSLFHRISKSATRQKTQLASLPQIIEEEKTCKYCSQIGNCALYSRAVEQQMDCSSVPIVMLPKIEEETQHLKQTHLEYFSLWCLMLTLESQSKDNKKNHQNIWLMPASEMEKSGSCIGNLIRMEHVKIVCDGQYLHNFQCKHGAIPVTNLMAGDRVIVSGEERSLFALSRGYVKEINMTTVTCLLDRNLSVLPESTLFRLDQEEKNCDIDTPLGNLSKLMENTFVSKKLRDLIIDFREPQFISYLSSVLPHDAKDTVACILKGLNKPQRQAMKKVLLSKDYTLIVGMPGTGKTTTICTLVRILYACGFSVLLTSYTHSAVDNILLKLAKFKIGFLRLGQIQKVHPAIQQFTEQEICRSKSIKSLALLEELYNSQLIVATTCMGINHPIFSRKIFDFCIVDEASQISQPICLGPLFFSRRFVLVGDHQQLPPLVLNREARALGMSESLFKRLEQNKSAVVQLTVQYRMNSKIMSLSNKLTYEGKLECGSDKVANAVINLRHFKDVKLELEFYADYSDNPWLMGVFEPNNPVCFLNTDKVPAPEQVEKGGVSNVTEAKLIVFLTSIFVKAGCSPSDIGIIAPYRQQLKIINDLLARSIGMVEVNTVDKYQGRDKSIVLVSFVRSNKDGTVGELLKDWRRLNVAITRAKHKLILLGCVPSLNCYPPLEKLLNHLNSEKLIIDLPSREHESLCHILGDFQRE
Kind of data set: EMSA; no RPA; 25 mM Tris-acetate pH 7.5, 2 mM Mg acetate, 1 mM DTT, 0.1 mg/ml BSA, 1 nM DNA, 37 C 30 min; 6% PAGE in TAE on ice. As to conditions: protein: recombinant; tags: N-terminal 6xHis, C-terminal FLAG; label: 5' 32P; single strand. On the technique in general: A gel shift assay detects complexes by their altered migration in electrophoresis.

Broadly, the Kd is the constant that tells how readily two partners part at equilibrium.

As for GACGTCATAGACGATTACATTGCTAGGACATGCTGTCTAGAGACTATCGC (ssDNA) [ssDNA 50 nt (X12-3)], the Kd was approximately 2 nM.
